Experimental data as given in PMC11574045, “A cofactor-induced repressive type of transcription factor condensation can be induced by synthetic peptides to suppress tumorigenesis” (The EMBO Journal, 2024).

B1: SIX2 (protein, UniProt Q9NPC8 1-291, looked up)
Homeobox protein SIX2: MSMLPTFGFTQEQVACVCEVLQQGGNIERLGRFLWSLPACEHLHKNESVLKAKAVVAFHRGNFRELYKILESHQFSPHNHAKLQQLWLKAHYIEAEKLRGRPLGAVGKYRVRRKFPLPRSIWDGEETSYCFKEKSRSVLREWYAHNPYPSPREKRELAEATGLTTTQVSNWFKNRRQRDRAAEAKERENNENSNSNSHNPLNGSGKSVLGSSEDEKTPSGTPDHSSSSPALLLSPPPPGLPSLHSLGHPPGPSAVPVPVPGGGGADPLQHHHGLQDSILNPMSANLVDLGS
B2: SCX (protein, UniProt Q7RTU7 1-201, looked up)
Basic helix-loop-helix …: MSFATLRPAPPGRYLYPEVSPLSEDEDRGSDSSGSDEKPCRVHAARCGLQGARRRAGGRRAGGGGPGGRPGREPRQRHTANARERDRTNSVNTAFTALRTLIPTEPADRKLSKIETLRLASSYISHLGNVLLAGEACGDGQPCHSGPAFFHAARAGSPPPPPPPPPARDGENTQPKQICTFCLSNQRKLSKDRDRKTAIRS
B3: SIX1 (protein, UniProt Q15475 1-284, looked up)
Homeobox protein SIX1: MSMLPSFGFTQEQVACVCEVLQQGGNLERLGRFLWSLPACDHLHKNESVLKAKAVVAFHRGNFRELYKILESHQFSPHNHPKLQQLWLKAHYVEAEKLRGRPLGAVGKYRVRRKFPLPRTIWDGEETSYCFKEKSRGVLREWYAHNPYPSPREKRELAEATGLTTTQVSNWFKNRRQRDRAAEAKERENTENNNSSSNKQNQLSPLEGGKPLMSSSEEEFSPPQSPDQNSVLLLQGNMGHARSSNYSLPGLTASQPSHGLQTHQHQLQDSLLGPLTSSLVDLGS
B4: SETD7 (protein, UniProt Q8WTS6 1-366, looked up)
Histone-lysine …: MDSDDEMVEEAVEGHLDDDGLPHGFCTVTYSSTDRFEGNFVHGEKNGRGKFFFFDGSTLEGYYVDDALQGQGVYTYEDGGVLQGTYVDGELNGPAQEYDTDGRLIFKGQYKDNIRHGVCWIYYPDGGSLVGEVNEDGEMTGEKIAYVYPDERTALYGKFIDGEMIEGKLATLMSTEEGRPHFELMPGNSVYHFDKSTSSCISTNALLPDPYESERVYVAESLISSAGEGLFSKVAVGPNTVMSFYNGVRITHQEVDSRDWALNGNTLSLDEETVIDVPEPYNHVSKYCASLGHKANHSFTPNCIYDMFVHPRFGPIKCIRTLRAVEADEELTVAYGYDHSPPGKSGPEAPEWYQVELKAFQATQQK
B5: SIM1 (protein, UniProt P81133 1-766, looked up)
Single-minded homolog 1: MKEKSKNAARTRREKENSEFYELAKLLPLPSAITSQLDKASIIRLTTSYLKMRVVFPEGLGEAWGHSSRTSPLDNVGRELGSHLLQTLDGFIFVVAPDGKIMYISETASVHLGLSQVELTGNSIYEYIHPADHDEMTAVLTAHQPYHSHFVQEYEIERSFFLRMKCVLAKRNAGLTCGGYKVIHCSGYLKIRQYSLDMSPFDGCYQNVGLVAVGHSLPPSAVTEIKLHSNMFMFRASLDMKLIFLDSRVAELTGYEPQDLIEKTLYHHVHGCDTFHLRCAHHLLLVKGQVTTKYYRFLAKHGGWVWVQSYATIVHNSRSSRPHCIVSVNYVLTDTEYKGLQLSLDQISASKPAFSYTSSSTPTMTDNRKGAKSRLSSSKSKSRTSPYPQYSGFHTERSESDHDSQWGGSPLTDTASPQLLDPADRPGSQHDASCAYRQFSDRSSLCYGFALDHSRLVEERHFHTQACEGGRCEAGRYFLGTPQAGREPWWGSRAALPLTKASPESREAYENSMPHIASVHRIHGRGHWDEDSVVSSPDPGSASESGDRYRTEQYQSSPHEPSKIETLIRATQQMIKEEENRLQLRKAPSDQLASINGAGKKHSLCFANYQQPPPTGEVCHGSALANTSPCDHIQQREGKMLSPHENDYDNSPTALSRISSPNSDRISKSSLILAKDYLHSDISPHQTAGDHPTVSPNCFGSHRQYFDKHAYTLTGYALEHLYDSETIRNYSLGCNGSHFDVTSHLRMQPDPAQGHKGTSVIITNGS
B6: SIRT2 (protein, UniProt Q8IXJ6 2-389, looked up)
NAD-dependent protein …: AEPDPSHPLETQAGKVQEAQDSDSDSEGGAAGGEADMDFLRNLFSQTLSLGSQKERLLDELTLEGVARYMQSERCRRVICLVGAGISTSAGIPDFRSPSTGLYDNLEKYHLPYPEAIFEISYFKKHPEPFFALAKELYPGQFKPTICHYFMRLLKDKGLLLRCYTQNIDTLERIAGLEQEDLVEAHGTFYTSHCVSASCRHEYPLSWMKEKIFSEVTPKCEDCQSLVKPDIVFFGESLPARFFSCMQSDFLKVDLLLVMGTSLQVQPFASLISKAPLSTPRLLINKEKAGQSDPFLGMIMGLGGGMDFDSKKAYRDVAWLGECDQGCLALAELLGWKKELEDLVRREHASIDAQSGAGVPNPSTSASPKKSPPPAKDEARTTEREKPQ
B7: BCL11A (protein, UniProt Q9H165 1-835, looked up)
BCL11 transcription factor A: MSRRKQGKPQHLSKREFSPEPLEAILTDDEPDHGPLGAPEGDHDLLTCGQCQMNFPLGDILIFIEHKRKQCNGSLCLEKAVDKPPSPSPIEMKKASNPVEVGIQVTPEDDDCLSTSSRGICPKQEHIADKLLHWRGLSSPRSAHGALIPTPGMSAEYAPQGICKDEPSSYTCTTCKQPFTSAWFLLQHAQNTHGLRIYLESEHGSPLTPRVGIPSGLGAECPSQPPLHGIHIADNNPFNLLRIPGSVSREASGLAEGRFPPTPPLFSPPPRHHLDPHRIERLGAEEMALATHHPSAFDRVLRLNPMAMEPPAMDFSRRLRELAGNTSSPPLSPGRPSPMQRLLQPFQPGSKPPFLATPPLPPLQSAPPPSQPPVKSKSCEFCGKTFKFQSNLVVHRRSHTGEKPYKCNLCDHACTQASKLKRHMKTHMHKSSPMTVKSDDGLSTASSPEPGTSDLVGSASSALKSVVAKFKSENDPNLIPENGDEEEEEDDEEEEEEEEEEEEELTESERVDYGFGLSLEAARHHENSSRGAVVGVGDESRALPDVMQGMVLSSMQHFSEAFHQVLGEKHKRGHLAEAEGHRDTCDEDSVAGESDRIDDGTVNGRGCSPGESASGGLSKKLLLGSPSSLSPFSKRIKLEKEFDLPPAAMPNTENVYSQWLAGYAASRQLKDPFLSFGDSRQSPFASSSEHSSENGSLRFSTPPGELDGGISGRSGTGSGGSTPHISGPGPGRPSSKEGRRSDTCEYCGKVFKNCSNLTVHRRSHTGERPYKCELCNYACAQSSKLTRHMKTHGQVGKDVYKCEICKMPFSVYSTLEKHMKKWHSDRVLNNDIKTE
B8: SETD8 (protein, UniProt Q9NQR1 1-393, looked up)
N-lysine methyltransferase …: MGEGGAAAALVAAAAAAAAAAAAVVAGQRRRRLGRRARCHGPGRAAGGKMSKPCAVEAAAAAVAATAPGPEMVERRGPGRPRTDGENVFTGQSKIYSYMSPNKCSGMRFPLQEENSVTHHEVKCQGKPLAGIYRKREEKRNAGNAVRSAMKSEEQKIKDARKGPLVPFPNQKSEAAEPPKTPPSSCDSTNAAIAKQALKKPIKGKQAPRKKAQGKTQQNRKLTDFYPVRRSSRKSKAELQSEERKRIDELIESGKEEGMKIDLIDGKGRGVIATKQFSRGDFVVEYHGDLIEITDAKKREALYAQDPSTGCYMYYFQYLSKTYCVDATRETNRLGRLINHSKCGNCQTKLHDIDGVPHLILIASRDIAAGEELLYDYGDRSKASIEAHPWLKH
B9: SIX6 (protein, UniProt Q9QZ28 1-246, looked up)
Homeobox protein SIX6: MFQLPILNFSPQQVAGVCETLEESGDVERLGRFLWSLPVAPAACEALNKNESVLRARAIVAFHGGNYRELYHILENHKFTKESHAKLQALWLEAHYQEAEKLRGRPLGPVDKYRVRKKFPLPRTIWDGEQKTHCFKERTRHLLREWYLQDPYPNPSKKRELAQATGLTPTQVGNWFKNRRQRDRAAAAKNRLQQQVLSQGPGRVLRSEGEGTPEVLGVASSPAASLSSKAATSAISITSSDSECDI
B10: SIX3 (protein, UniProt O95343 1-332, looked up)
Homeobox protein SIX3: MVFRSPLDLYSSHFLLPNFADSHHRSILLASSGGGNGAGGGGGAGGGSGGGNGAGGGGAGGAGGGGGGGSRAPPEELSMFQLPTLNFSPEQVASVCETLEETGDIERLGRFLWSLPVAPGACEAINKHESILRARAVVAFHTGNFRDLYHILENHKFTKESHGKLQAMWLEAHYQEAEKLRGRPLGPVDKYRVRKKFPLPRTIWDGEQKTHCFKERTRSLLREWYLQDPYPNPSKKRELAQATGLTPTQVGNWFKNRRQRDRAAAAKNRLQHQAIGPSGMRSLAEPGCPTHGSAESPSTAASPTTSVSSLTERADTGTSILSVTSSDSECDV
B11: SMAD3 (protein, UniProt P84022 2-425, looked up)
Mothers against …: SSILPFTPPIVKRLLGWKKGEQNGQEEKWCEKAVKSLVKKLKKTGQLDELEKAITTQNVNTKCITIPRSLDGRLQVSHRKGLPHVIYCRLWRWPDLHSHHELRAMELCEFAFNMKKDEVCVNPYHYQRVETPVLPPVLVPRHTEIPAEFPPLDDYSHSIPENTNFPAGIEPQSNIPETPPPGYLSEDGETSDHQMNHSMDAGSPNLSPNPMSPAHNNLDLQPVTYCEPAFWCSISYYELNQRVGETFHASQPSMTVDGFTDPSNSERFCLGLLSNVNRNAAVELTRRHIGRGVRLYYIGGEVFAECLSDSAIFVQSPNCNQRYGWHPATVCKIPPGCNLKIFNNQEFAALLAQSVNQGFEAVYQLTRMCTIRMSFVKGWGAEYRRQTVTSTPCWIELHLNGPLQWLDKVLTQMGSPSIRCSSVS
B12: SMAD4 (protein, UniProt Q13485 1-552, looked up)
Mothers against …: MDNMSITNTPTSNDACLSIVHSLMCHRQGGESETFAKRAIESLVKKLKEKKDELDSLITAITTNGAHPSKCVTIQRTLDGRLQVAGRKGFPHVIYARLWRWPDLHKNELKHVKYCQYAFDLKCDSVCVNPYHYERVVSPGIDLSGLTLQSNAPSSMMVKDEYVHDFEGQPSLSTEGHSIQTIQHPPSNRASTETYSTPALLAPSESNATSTANFPNIPVASTSQPASILGGSHSEGLLQIASGPQPGQQQNGFTGQPATYHHNSTTTWTGSRTAPYTPNLPHHQNGHLQHHPPMPPHPGHYWPVHNELAFQPPISNHPAPEYWCSIAYFEMDVQVGETFKVPSSCPIVTVDGYVDPSGGDRFCLGQLSNVHRTEAIERARLHIGKGVQLECKGEGDVWVRCLSDHAVFVQSYYLDREAGRAPGDAVHKIYPSAYIKVFDLRQCHRQMQQQAATAQAAAAAQAAAVAGNIPGPGSVGGIAPAISLSAAAGIGVDDLRRLCILRMSFVKGWGPDYPRQSIKETPCWIEIHLHRALQLLDEVLHTMPIADPQPLD

Each molecule was assayed on HEK293FT cells transfected with TF library (assay: Screening of TF condensates based on fluorescent puncta). Conditions: Figure 1B numerical data; TF library screen, one value per transcriptional factor.
Format: cell-based
In short: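 Each TF construct was introduced into HEK293FT cells using PEI at 4.8 μg/ml; glucose deprivation versus normal medium lasted 12 h. Automated confocal-style imaging of tagged TF staining, 50 fields per well, gave the puncta data.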

Molecule	Z score of condensed fraction
B1	-0.1884
B2	-0.06618
B3	-0.6669
B4	0.4495
B5	-1.099
B6	0.4793
B7	-0.5173
B8	-0.8816
B9	1.297
B10	-0.646
B11	-0.8472
B12	-0.5517
